This assay addresses Gβγ (βγ subunit of the heterotrimeric G protein) (rabbit). The assay can be described thus: cell-based or functional assay.

For “βARKCT (βARK-1-(495-689) polypeptide; Met-Gly495-Leu689 of bovine β-adrenergic receptor kinase-1) (from UniProt P21146 495-689)”, the EGF activation of MAP kinase in cultured vascular smooth muscle cells (versus empty virus treated cells) was -7%, the LPA activation of MAP kinase in cultured vascular smooth muscle cells (versus empty virus treated cells) was -58%, the basal MAP kinase activity in cultured vascular smooth muscle cells (versus empty virus treated cells) was 18% and the serum activation of MAP kinase in cultured vascular smooth muscle cells (versus empty virus treated cells) is -38%.

Values taken from US6683057.
